The target in the series is TTP TZF (RBD) (Homo sapiens, UniProt P26651 102-170). Kind of series: NMR.
Chain of TTP TZF (RBD) (P26651 102-170): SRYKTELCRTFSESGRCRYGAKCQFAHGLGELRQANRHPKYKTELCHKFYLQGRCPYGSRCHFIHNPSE

B1: ARE13 (NMR) (ssRNA)
RNA: UUUUAUUUAUUUU
As to B1, the binding result is “binds”.

The values above are taken from publication PMC5129185.
